The target of data set [1] is T1, Integration Host Factor (IHF) (Escherichia coli (purified from E. coli …, UniProt P0A6X7;P0A6Y1 1-99;1-94)). Briefly: EMSA; 1 mM Mg2+; apparent; 5 mM Tris-HCl pH 7.4-7.6, 70 mM KCl, 0.1 mM EDTA, 0.5-10% ethylene glycol, fluorescence at 10 C; Mg buffer: 5 mM Tris-HCl pH 7.4, 1 mM MgCl2, 10% ethylene glycol; stopped flow 20 C with 0.01% NP-40. To be noted: protein: recombinant; copies: 1;1; label: none for EMSA (SYBR Green); 5' TAMRA for fluorescence intensity; donor-acceptor pair for stopped flow; four-way junction of 4 strands (20 nt), four 10 bp arms. Background: A gel shift assay detects complexes by their altered migration in electrophoresis.

The target in data set [2] is T1, Integration Host Factor (IHF). Briefly: EMSA; 70 mM KCl; apparent; 5 mM Tris-HCl pH 7.4-7.6, 70 mM KCl, 0.1 mM EDTA, 0.5-10% ethylene glycol, fluorescence at 10 C; Mg buffer: 5 mM Tris-HCl pH 7.4, 1 mM MgCl2, 10% ethylene glycol; stopped flow 20 C with 0.01% NP-40. The note with it: protein: recombinant, copies: 1;1, label: none for EMSA (SYBR Green).
For data set [3] the target is unchanged. The data set is described as follows: fluorescence anisotropy; 1 mM Mg2+?; 5 mM Tris-HCl pH 7.4-7.6, 70 mM KCl, 0.1 mM EDTA, 0.5-10% ethylene glycol, fluorescence at 10 C; Mg buffer: 5 mM Tris-HCl pH 7.4, 1 mM MgCl2, 10% ethylene glycol; stopped flow 20 C with 0.01% NP-40. To be noted: protein: recombinant; copies: 1;1; label: none for EMSA (SYBR Green); 5' TAMRA for fluorescence intensity; donor-acceptor pair for stopped flow; four-way junction of 4 strands (20 nt), four 10 bp arms. For orientation: Fluorescence polarisation rises when a labelled molecule tumbles more slowly, as on binding a larger partner.

Data set [4] shares this target. Briefly: fluorescence intensity; 70 mM KCl; 5'-TAMRA; 5 mM Tris-HCl pH 7.4-7.6, 70 mM KCl, 0.1 mM EDTA, 0.5-10% ethylene glycol, fluorescence at 10 C; Mg buffer: 5 mM Tris-HCl pH 7.4, 1 mM MgCl2, 10% ethylene glycol; stopped flow 20 C with 0.01% NP-40. To be noted: protein: recombinant; copies: 1;1; label: none for EMSA (SYBR Green); 5' TAMRA for fluorescence intensity; donor-acceptor pair for stopped flow; four-way junction of 4 strands (20 nt), four 10 bp arms.

Data set [5] shares this target. Briefly: EMSA; 70 mM KCl, no Mg2+; 5 mM Tris-HCl pH 7.4-7.6, 70 mM KCl, 0.1 mM EDTA, 0.5-10% ethylene glycol, fluorescence at 10 C; Mg buffer: 5 mM Tris-HCl pH 7.4, 1 mM MgCl2, 10% ethylene glycol; stopped flow 20 C with 0.01% NP-40. The note with it: protein: recombinant; copies: 1;1; label: none for EMSA (SYBR Green); immobile four-way junction of 4 strands (34 nt), four 17 bp arms.

The target is the same in data set [6]. The data set is described as follows: fluorescence anisotropy; 70 mM KCl; 2 nM DNA; 5 mM Tris-HCl pH 7.4-7.6, 70 mM KCl, 0.1 mM EDTA, 0.5-10% ethylene glycol, fluorescence at 10 C; Mg buffer: 5 mM Tris-HCl pH 7.4, 1 mM MgCl2, 10% ethylene glycol; stopped flow 20 C with 0.01% NP-40. The note with it: protein: recombinant; copies: 1;1; label: fluorescein (end); immobile four-way junction of 4 strands (34 nt), four 17 bp arms.

The target is the same in data set [7]. The data set is described as follows: fluorescence intensity; 70 mM KCl; 0.5 nM DNA; printed as <=2.2; 5 mM Tris-HCl pH 7.4-7.6, 70 mM KCl, 0.1 mM EDTA, 0.5-10% ethylene glycol, fluorescence at 10 C; Mg buffer: 5 mM Tris-HCl pH 7.4, 1 mM MgCl2, 10% ethylene glycol; stopped flow 20 C with 0.01% NP-40. The note with it: protein: recombinant; copies: 1;1; label: 6-MI; immobile four-way junction of 4 strands (34 nt), four 17 bp arms.

For data set [8] the target is unchanged. The data set is described as follows: fluorescence intensity; 70 mM KCl; end-labeled; 5 mM Tris-HCl pH 7.4-7.6, 70 mM KCl, 0.1 mM EDTA, 0.5-10% ethylene glycol, fluorescence at 10 C; Mg buffer: 5 mM Tris-HCl pH 7.4, 1 mM MgCl2, 10% ethylene glycol; stopped flow 20 C with 0.01% NP-40. The note with it: protein: recombinant, copies: 1;1, label: none for EMSA (SYBR Green), immobile four-way junction of 4 strands, four 17 bp arms.

We go through five molecules from PMC9820253, “Integration Host Factor Binds DNA Holliday Junctions”.

Changes are numbered by the printed parent chain.

T1 sequence (P0A6X7 whole entry, chain 1 of 2): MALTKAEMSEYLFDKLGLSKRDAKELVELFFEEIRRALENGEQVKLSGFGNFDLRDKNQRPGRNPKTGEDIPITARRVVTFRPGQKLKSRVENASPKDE
T1 sequence (P0A6Y1 whole entry, chain 2 of 2): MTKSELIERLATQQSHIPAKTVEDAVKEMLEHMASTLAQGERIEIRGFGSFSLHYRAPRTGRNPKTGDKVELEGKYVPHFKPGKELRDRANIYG

B1: J20 junction (structured_DNA)
DNA 1: CCACCGCTCAACTCAACTGC
DNA 2: GCAGTTGAGTCCTTGCTAGG
DNA 3: CCTAGCAAGGGGCTGCTACC
DNA 4: GGTAGCAGCCTGAGCGGTGG
B1: the Kd is 514 ± 141 nM in data set [1]; 170 ± 40 nM in data set [2] (5' TAMRA for fluorescence intensity, donor-acceptor pair for stopped flow, four-way junction of 4 strands (20 nt), four 10 bp arms); 43 ± 11 nM in data set [3]; 4.4 ± 0.5 nM in data set [4].

B2: J34 junction (structured_DNA)
DNA 1: CCTTCAACCACCGCTCAACTCAACTGCAGTCTGG
DNA 2: CCAGACTGCAGTTGAGTCCTTGCTAGGACGGAGG
DNA 3: CCTCCGTCCTAGCAAGGGGCTGCTACCGGAAGGG
DNA 4: CCCTTCCGGTAGCAGCCTGAGCGGTGGTTGAAGG
In the case of B2, the Kd in data set [5] was 58 ± 36 nM.

B3: J34 junction, fluorescein end-labeled (structured_DNA)
DNA 1: B2 DNA 1
DNA 2: B2 DNA 2
DNA 3: B2 DNA 3
DNA 4: B2 DNA 4
With B3, the Kd in data set [6] is 2 nM.

B4: J34 junction, 6-MI labeled (structured_DNA)
DNA 1: B2 DNA 1
DNA 2: B2 DNA 2
DNA 3: B2 DNA 3
DNA 4: B2 DNA 4
modifications: 6-methylisoxanthopterin (6-MI) nucleoside
As to B4, the Kd in data set [7] was less than 2.2 nM.

B5: JH1 junction (structured_DNA)
DNA 1: CCTTCAACCACCGCTCATGATTACTGCAGTCTGG
DNA 2: CCAGACTGCAGTAATCAACTACTTAGGACGGAGG
DNA 3: B2 DNA 3 with G12A, C13G, A14T, G17T
DNA 4: B2 DNA 4 with C22T
With B5, the Kd in data set [2] (end label for fluorescence, immobile four-way junction of 4 strands, four 17 bp arms) turned out to be 65 ± 8 nM; in data set [8], 9.2 ± 2 nM.
